Data reported in the supplement of paper PMC12764529.
± gives the half width of the 95% confidence interval.

Columns and labels:
[1] = folding stability dG unfold (combined trypsin and chymotrypsin); higher = more stable
How it was run: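 Mini-proteins designed to be under 80 residues and free of cysteine were carried in a PA-tagged cDNA display construct and digested with trypsin and with chymotrypsin. Each protease was applied at 11 threefold-diluted concentrations, alongside a no-protease condition, before sequencing. K50 came from Bayesian fitting of the sequencing counts, and unfolding free energy was obtained by comparing it with a sequence-predicted unfolded-state K50 and a shared folded-state K50, for each protease separately or for both together. Designs were retained only if their AlphaFold2 dimer inter-PAE exceeded 15.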

[2] = folding stability dG unfold from trypsin proteolysis; higher = more stable
Procedure: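 Folding stability of de novo designed mini-proteins (<80 aa, no Cys; designed by TrROS, TrMRF, ProteinMPNN and the joint model) was measured by cDNA display proteolysis with trypsin and chymotrypsin. Each protease was used at 11 concentrations in a threefold dilution series plus a no-protease condition. K50 was inferred by Bayesian fitting of sequencing counts, and dG unfold was derived against a sequence-predicted unfolded-state K50 (Tsuboyama et al. method). Sequences shown include variable-length N-terminal GS-type padding (SAGGSAGG...) inside a display construct carrying a PA tag. Rows were kept only if the AF2 dimer inter-PAE was >15, to exclude likely homo-oligomers.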

| Sequence | folding stability dG unfold [1] [kcal/mol] | folding stability dG unfold [2] [kcal/mol] |
| --- | --- | --- |
| SAGGSAGGSAGMLLLTFPERGISYEIKLGDKEEEREADPEEVEKLIAELPNYEVKEVELLSAGGSAGGSAGG [r11_57_JUSTAS] | 0.288 ± 0.26 | 0.559 ± 0.1 |
| SNPWQIKFRNPNRPVEIPIQMNPDDGYVGISVRMRKPGKPKTHTITYKVKNIEDLLDHLEDLPPGFEIEPSA [r9_713_TrROS] | -0.0771 ± 0.45 | 0.435 ± 0.27 |
| SAGVEELAEKIAKELEGEDFEVEAEVDPEKGTITVVVKTPDYVVVKEIYIDPKNDKPVMDVKVFKPNESAGG [r19_2_TrMRF] | -0.954 ± 0.7 | 0.241 ± 0.059 |
| SSVITNKGSLTITKTTLPDGTVVITITDPNGGRTTTITIPADSDGEATVTPTGSGNAATSTIPVSSLKLSSA [r9_1071_JUSTAS] | 0.183 ± 0.21 | 0.505 ± 0.096 |
| SKITITIEEEEVEVNGKKYKVFKVTATVTVTEYKFKDGKLVEKKTKTKTITVRIVLDKNGKIVKIEPLPDSA [r9_829_TrROS_Hall] | > 6 | 4.33 ± 0.32 |
| SAGGSAVVEIPIPPSSLDVRALIVPTDGPLTTVLVEETLPDGTPRVRLYRYDPARGEVRPLAEELPSAGGSA [r2_402_JUSTAS] | < -1 | -0.671 ± 0.17 |
| SAGGSAPGKKTIKIEIIFPFPEEQAKEFADYIAKGIADETGHDPENIDIKVEVHVFDPANNEPRPFSAGGSA [r15_918_TrROS] | -0.511 ± 0.25 | -0.236 ± 0.2 |
| SAGGSAGGSMVLIEIYFKGPEKPIVFPAEGPEEVVEKLLELVEENPELGLDNIAEIRAYPGEESAGGSAGGS [r12_852_TrMRF] | 0.0303 ± 0.28 | 0.425 ± 0.074 |
| SAGGSAGGSPVTVETSSQTSTVPLPTGPTVTLVTNTTTTTRPVPLSTPRSSSTTTVTTTVTVVSSAGGSAGG [r6_224_JUSTAS] | < -1 | -0.311 ± 0.11 |
| SAGGSAGGSAGMKPGQEVRVEVPVPNNGKKIKIPVYVPPGYTPKQAKNMAIMMAKMIREMSAGGSAGGSAGG [r11_355_TrROS] | 0.0699 ± 0.096 | 0.516 ± 0.072 |
| SAGGSAGGSAGMPLPIKTLTEVSTVEGVGITLTALDNGLVIVEKSDGKVTVIPLSAYEAQSAGGSAGGSAGG [r11_254_JUSTAS] | -0.0335 ± 0.073 | 0.643 ± 0.04 |
| SAGGSAGGNPEDKERRYVRMPIKVTVPNPNGKKIKIPIYMPVGDPERMMPRAIKFARELAKKGLSAGGSAGG [r6_903_TrROS] | < -1 | -0.301 ± 0.7 |
| SAGGSAGGSAGKKRKIEINIIVPPEGAKQMAKMIKDELAQRNRDVDIEIKIIPVPPGQPLSAGGSAGGSAGG [r11_973_TrROS] | < -1 | 0.434 ± 0.16 |
| SAGGSAGGSAGSMPIVLRAEFPSNDETVEIPVTSPEEAERVAQELAAQPDWPLEKVDFGGSAGGSAGGSAGG [r11_951_JUSTAS] | < -1 | 0.414 ± 0.064 |
| SALPPEEVKKLARDIMREFNPDNGFKPEDVDVDPNEGTIMVDWRMPDPNGKRHRMPFQIQVDKDGKIKISAG [r14_183_TrROS] | < -1 | -0.306 ± 0.36 |
| SAGPKIVEVKPSNGKLEITVEIPVPGAPVLFLNPAKNATIESDPNGRITITLDSEGEYEIIIGNPVFDSAGG [r19_227_TrMRF] | 0.0526 ± 0.087 | 0.394 ± 0.026 |
| SAGGSAGGSAGGHIVIPNKRWYIQFPNGKPIGEHRFDTAEDIAKELPPNMRIVPPGDPISAGGSAGGSAGGS [r10_310_TrROS] | < -1 | 0.281 ± 0.32 |
| SAGGSAGGSAGGSMGPVPVWITIKIPDKNGKPKRKIEIPMEGPNMTPSEIRKQAKPFIKSAGGSAGGSAGGS [r4_375_TrROS] | < -1 | -0.281 ± 0.49 |
| SMKIKITAKTEEEREKAKKLLEEIAKELNIEIKIEKIEVIPKPKPEKVELSEEEKKKLKELEEEGLIEEESA [r9_472_TrROS_Hall] | < -1 | 0.578 ± 0.059 |
| SAGGPSAENLVEGDKVLLLIPLGDGPERRLELPLPDGRPVVVEVEPDRPGLITVTIPETGKPIVLPLSAGGS [r16_198_TrMRF] | < -1 | -0.489 ± 0.086 |
| SAGGSAGGSPDNITFKVPDGPVRIENGNNEQEFPPGKTQTIPPKNPNNMRIEAFPPNIIKITPSAGGSAGGS [r20_150_TrROS] | < -1 | -0.793 ± 0.45 |
| SAGGSAGGSAPPPLPPDAVVTIPNPGSLEEVKKLAEKLREEHGIKKIKITVEPNSVTLTVASAGGSAGGSAG [r3_73_JUSTAS] | < -1 | 0.476 ± 0.15 |
| SAGGSAGGPVTVVPVVTPADVPVLTTPGGAPARPASRPDLVRPVASTVTVTITPAPAAPTVTVLSAGGSAGG [r6_537_JUSTAS] | 0.135 ± 0.12 | 0.857 ± 0.038 |
| SAGGKVEIYNPNGQWKEITPEDLEGLKPGTIWQMPNGPVMIEIPGNDETIPIPMDSPNDIKDAIKDALSAGG [r13_962_TrROS] | -0.183 ± 0.18 | 0.246 ± 0.066 |

| Sequence | folding stability dG unfold [1] [kcal/mol] | folding stability dG unfold [2] [kcal/mol] |
| --- | --- | --- |
| SAGGSAGGSAGGSSSLPLSTGTIPLEELEAQGGPIVEVTVLLFSGSSNRTIVMDLPPELVSAGGSAGGSAGG [r7_116_JUSTAS] | -0.596 ± 0.31 | -0.372 ± 0.29 |
| SAGGSAGGPYMVMIRMPNNPQPIWFPPDEVKEALKEGDEKRIKFPGGGMEMTIRNVDDIEIMPPSAGGSAGG [r6_509_TrROS] | < -1 | -0.793 ± 0.58 |
| SAGGSAGGSAPLEELLDVIRSVPANTRAEFPIIVETETGYVPYIARVENPEPGGALIEIEKASAGGSAGGSA [r18_493_TrMRF] | < -1 | -0.258 ± 0.11 |
| SAGGWMPIEDLKDIPENMPPGYKITIRNPGNGQEGTFEYNKDGGIKIEDPGKPVEIPPGAYIDEIEPSAGGS [r8_162_TrROS] | -0.679 ± 0.71 | 0.654 ± 0.12 |
| SAGGSAGGSSPDIEVEITVDAPPGARILGTDGKPVEIPASNPKVKIIVIEGDNSFFIKTEPVGSAGGSAGGS [r12_338_TrMRF] | < -1 | -0.362 ± 0.22 |
| SAGGSAGGSAGGPVVNILVKHPNGKKETISVDVKEENIGEVATDILPKGYEVLEPSVFPGSAGGSAGGSAGG [r7_159_TrMRF] | < -1 | -0.258 ± 0.1 |
| SAGGSAGGSMDPGQPMEFIQIYPDPDGNLEIHVSEIRIDPDGGAKVTEVEPKRIDDAEDLAKFSAGGSAGGS [r12_386_TrROS] | < -1 | -0.752 ± 0.19 |
| SKVLELLKELAKKLGATITEVKVEKLEDGTVKVTATITVTYLDKNGKPVKTETLTLTITVKNGKITEIKLSA [r9_519_TrROS_Hall] | > 6 | 4.66 ± 0.55 |
| SAGGSAGGSAGTKEYEVKVGDKIVRISETPDSRVIDYPETDFKKEFSSDFPGKPIAEYLASAGGSAGGSAGG [r11_648_TrMRF] | < -1 | -0.781 ± 0.49 |
| SAGGSAGGSAGSPPGSTTLRAETVVVELPAAEAYTPEGERVELPRVIVEETVERELEAGLSAGGSAGGSAGG [r11_907_JUSTAS] | -0.216 ± 0.31 | 0.427 ± 0.043 |
| SAGGGKIVFTEGYLLAEFPPTDLRVARPIPPDRPELALEEVADAFIAEMEAEFGFPPPEDVRVEVLASAGGS [r8_402_TrMRF] | -0.0645 ± 0.2 | 0.28 ± 0.058 |
| SAGGSAGGMVEHVVTVPPSQVEEVIEEAKPKPVVEVKVEKVPGRDEVVVTMKYEIPEEELLKKLSAGGSAGG [r6_273_JUSTAS] | < -1 | -0.704 ± 0.084 |
| SAGGSAGGSATVDEVIKEAREEAREEHPNYPPGQTHTIKIRDPDNGEKVKIRFTNDGKIEISAGGSAGGSAG [r3_441_TrROS] | < -1 | -0.0324 ± 0.057 |
| SAGGSMTLTFRKPDTDVTSEKVTKPPGGPELVDLRITPPDGSGEKRTLTPEELAKEFGLSLEEILESAGGSA [r2_262_JUSTAS] | < -1 | -0.183 ± 0.31 |
| SAGGSAGGSAGGSSRTIKLDGYKITVHPNSVHIYPPKNGKPVTVPMDNPEVQDLIKELISAGGSAGGSAGGS [r4_353_TrROS] | < -1 | -1.19 ± 0.31 |
| SITASAKHPEEAIELAEKLKKELEKLLGPDTKVPITLYDDKGNPATFPITLKKKKPKVIYDPEKGLYRDESA [r9_596_TrMRF] | -0.332 ± 0.55 | 0.042 ± 0.25 |
| SAGGSAGGSAGVELPPSLSAEVTPVPGKPGLSRVTITLPDGVVRTIDLERKGDKWIVNPRSAGGSAGGSAGG [r11_177_JUSTAS] | < -1 | -0.0818 ± 0.14 |
| SAGWRRIPPGRPIRIRLKGNGEEITIPIPEGAEVEPDPDNNNVMIWFREDGKEWSMNFKNGRIDDIEPVSAG [r5_22_TrROS] | < -1 | -0.194 ± 0.32 |
| SMKALVLELPEEKVVVVFETDELKVVPIPVKDKEEAKEKIEELVKELEEETGKKPEVVVVEVDEDEELPVSA [r9_786_TrMRF] | < -1 | -0.0691 ± 0.16 |
| SAGGSAGGSAGTVIYIDPETDMARVLVPDADGVLVDERAVPPDQLPDVLSQGNFTVVPAPSAGGSAGGSAGG [r11_159_TrMRF] | -0.943 ± 0.84 | -0.327 ± 0.36 |
| SKMKIKIEITEVYPEGKTIVVKAEIEIDGKTIEMEMTIKLPNGEEYRIRMRFVRRKDGRLEMEIEVEKLPSA [r9_255_TrROS_Hall] | > 6 | 5.33 ± 0.51 |
| SAGGSAGGSAGGSSVPADTVVELEFKDEKGEPLLITVRVTTKDSGVDRTVLEVRPPELLSAGGSAGGSAGGS [r10_744_JUSTAS] | -0.424 ± 0.17 | 0.00915 ± 0.05 |
| SAGGSAGGSADIELLGESVDPATGRSSKTFQAPGKIIVETTAPDGTKTTSVVDPNSNVTIPLSAGGSAGGSA [r18_230_JUSTAS] | < -1 | -0.522 ± 0.11 |
